What all share (conditions): both partners purified
In experiment [1] the target is Recombinant hemagglutinin of H7N9 A/Anhui/1/2013, ectodomain (Influenza A virus A/Anhui/1/2013 …, UniProt A0A024E3P0, strain). In words: SPR. (In general: Surface plasmon resonance follows binding to a sensor surface in real time, without labels.)
The target in experiment [2] is Recombinant hemagglutinin of H4N6 A/duck/Czech/1956, ectodomain, monomeric (Influenza A virus A/duck/Czech/1956 …, strain). The experiment is described as follows: SPR.
The target of experiment [3] is Recombinant hemagglutinin of H10N8 A/Jiangxi-Donghu/346/2013, ectodomain, monomeric (Influenza A virus …, strain). The experiment is described as follows: SPR.
The target in experiment [4] is Recombinant hemagglutinin of H3N2 A/Aichi/2/1968, ectodomain, monomeric (Influenza A virus A/Aichi/2/1968 (H3N2), strain). In words: SPR.
In experiment [5] the target is Recombinant hemagglutinin of H14N6 A/long-tailed duck/Wisconsin/10OS3912/2010, ectodomain, monomeric (Influenza A virus A/long-tailed …, UniProt G5DSS3, strain). The experiment is described as follows: SPR.
Experiment [6] deals with T1, H3 HA (strain not given) (Influenza A virus A/Aichi/2/1968 (H3N2)). In words: SPR.
Experiment [7] addresses H14 HA (H14N6 A/long-tailed duck/Wisconsin/10OS3912/2010) (Influenza A virus A/long-tailed …, UniProt G5DSS3). In words: SPR.
The target in experiment [8] is T1, H3 HA (strain not given). In words: ELISA. (An ELISA detects its analyte on a solid surface through an enzyme-linked reagent.)
The target in experiment [9] is Recombinant hemagglutinin of H15N8 A/duck/Australia/341/1983, ectodomain, monomeric (Influenza A virus …, UniProt Q82565, strain). The experiment is described as follows: SPR.

B1: AF4H1K1 Fab (Fab, V domains shown)
VH: QVQLVESGGGVVQPGTSLRLSCEASGFTSSAYAMHWVRQAPGKGLEWVAVITFDGGYQYYADSVKGRFTISRDISRNTLHLHMNSLRAEDTAVYYCARDPLTKLLPFDWVSGGYFDYWGQGTLVTVSS
VL: not shown
notes: also called H1 paired with K1
What is called Kd is the constant that tells how readily two partners part at equilibrium. On to B1, for which the Kd in experiment [1] was determined as 14 nM; in experiment [2], 9 nM; in experiment [3], 21 nM; in experiment [4], 0.79 nM; in experiment [5], 16 nM.

B2: AF4H1K1 Fab (Fab, V domains shown)
VH: QVQLVESGGGVVQPGTSLRLSCEASGFTSSAYAMHWVRQAPGKGLEWVAVITFDGGYQYYADSVKGRFTISRDISRNTLHLHMNSLRAEDTAVYYCARDPLTKLLPFDWVSGGYFDYWGQGTLVTVSS
VL: not shown
notes: also called AF4H1K1 Fab fragment
Consider B2, for which the binding result (with H3 HA (strain not given) [6]; in experiment [7]) was “binds” each time.

B3: AF4H1/L1CDR3m (antibody, V domains shown)
VH: QVQLVESGGGVVQPGTSLRLSCEASGFTSSAYAMHWVRQAPGKGLEWVAVITFDGGYQYYADSVKGRFTISRDISRNTLHLHMNSLRAEDTAVYYCARDPLTKLLPFDWVSGGYFDYWGQGTLVTVSS
VL: SYELTQPPSVSVSPGQTASITCSGDKLGDKYACWYQQKPGQSPVLVIYQDSKRPSGIPERFSGSNSGNTATLTISGTQAMDEADYYCQQYGSSFTFGTGTKVTVL
notes: IgG; copies: 2 + 2
Turning to B3, the binding result in the experiment with H3 HA (strain not given) [8] was “no binding”.

B4: AF4H1/FI6v3L Fab (Fab, V domains shown)
VH: QVQLVESGGGVVQPGTSLRLSCEASGFTSSAYAMHWVRQAPGKGLEWVAVITFDGGYQYYADSVKGRFTISRDISRNTLHLHMNSLRAEDTAVYYCARDPLTKLLPFDWVSGGYFDYWGQGTLVTVSS
VL: not shown
notes: also called AF4H1/FI6L; hybrid MAb with heavy chain from AF4H1K1 and light chain from FI6v3
B4: the Kd in experiment [1] was determined as 11.2 nM; in experiment [9], 518 nM; in experiment [2] it was 1.93 nM; in [3], 37.7 nM; in experiment [4], 0.0764 nM; in [5], 15.9 nM.

Source of the values: paper PMC6465249 (Cell Discovery, 2019).
